Molecular target: T1, recombinant monkey TfR (r monkey TfR: Sino Biological Inc.), cynomolgus monkey TfR extracellular region with … (cynomolgus monkey (Macaca fascicularis), UniProt Q5RDH6 89-760 (Pongo abelii entry))
T1 construct: Bought (Sino Biological); also called r monkey TfR-ECD (Histag); not shown: histidine tag attached to the N-terminus
T1 chain: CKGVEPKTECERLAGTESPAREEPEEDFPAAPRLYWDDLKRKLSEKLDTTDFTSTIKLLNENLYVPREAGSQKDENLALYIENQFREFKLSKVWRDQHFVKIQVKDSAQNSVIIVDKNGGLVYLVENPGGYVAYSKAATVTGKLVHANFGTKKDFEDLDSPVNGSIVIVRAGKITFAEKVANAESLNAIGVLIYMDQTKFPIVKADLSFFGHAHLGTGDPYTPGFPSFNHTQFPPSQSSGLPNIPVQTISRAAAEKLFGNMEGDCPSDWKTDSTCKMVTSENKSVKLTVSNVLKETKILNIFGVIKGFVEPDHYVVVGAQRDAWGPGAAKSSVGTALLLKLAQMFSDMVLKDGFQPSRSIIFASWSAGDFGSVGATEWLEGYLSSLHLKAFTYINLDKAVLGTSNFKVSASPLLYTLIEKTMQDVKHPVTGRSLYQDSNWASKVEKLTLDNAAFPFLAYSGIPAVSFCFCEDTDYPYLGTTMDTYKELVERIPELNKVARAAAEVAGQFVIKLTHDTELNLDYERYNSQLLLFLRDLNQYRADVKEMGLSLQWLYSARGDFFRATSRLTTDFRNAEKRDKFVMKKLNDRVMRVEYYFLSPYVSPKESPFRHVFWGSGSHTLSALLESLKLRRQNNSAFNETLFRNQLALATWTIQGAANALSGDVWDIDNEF
Test: BLI, Octet RED96, His-TfR ECD on Ni-NTA sensor
Method: By measuring the variations of this shift between the interfering waves, determination of the number of the molecules bound to the layer of the biomolecules immobilized to the sensor tip surface and kinetic analysis of it can be performed in real time. The measurement was performed according generally to the operating manual attached to Octet RED96. As a human TfR, a recombinant human TfR (r human TfR: Sino Biological Inc.) was used, which had the amino acid sequence of the hTfR extracellular region, i.e., the cysteine residue at the position 89th from the N-terminal side to the phenylalanine at the C-terminus, of the amino acid sequence set forth as SEQ ID NO:1, with a histidine tag attached to the N-terminus. As a monkey TfR, a recombinant monkey TfR (r monkey TfR: Sino Biological Inc.) was used, which had the amino acid sequence of the cynomolgus monkey TfR extracellular region, i.e., the cysteine residue at the position 89th from the N-terminal side to the phenylalanine at the C-terminus, of the amino acid sequence set forth as SEQ ID NO:2, with a histidine tag attached to the N-terminus. […]

B1: anti-hTfR antibody No. 6 (antibody, V domains shown)
VH: EVQLQESGPGLVAPSQSLSITCSVSGFSLSTYGVYWVRQPPGKGLEWLGIIWGDGSTNYHSALISRLTISKDNSKSQVFLKLNSLQTADTATYYCAKPDDVWGAGTTVTVSS
VL: DIVLTQTPSSLSASLGERVSLTCRASQEISGYLSWLQQKPDGTIKRLIYAASTLDSGVPKRFSGSRSGSDYSLTISSLESEDFADYYCLQYSSYPRTFGGGTKLEIK
notes: Mouse monoclonal antibody from a hybridoma, purified on Protein G; also called mouse anti-hTfR antibody No. 6; antibody of Clone 6 line
  Kd: 0.477 nM

B2: anti-hTfR antibody No. 2 (antibody, V domains shown)
VH: EVQLQESGAELVRPGVSVKISCKGSGYTFTDYVMHWVRQSHAKSLEWIGVISTYYGHGSYNQRFKGKATMTVDKSSSTAYLELVRLTSEDSAIYYCVRGGYGSSSLAGNFDVWGAGTTVTVSS
VL: DIVLTQSPATLSVTPGDSVSLSCRASQSISNNLQWYQQKSHESPRLLIKYASQSISGIPSRFSGSGSGTDFTLSINSVETEDFGMYFCQQSNSWPRTFGAGTKLELKR
notes: Mouse monoclonal antibody from a hybridoma, purified on Protein G; also called mouse anti-hTfR antibody No. 2; antibody of Clone 2 line
  koff: 1.75e-05 s⁻¹
